Among the data in paper PMC7378068 are NF-κB-driven expression of a luciferase reporter in HEK-Blue-IL1R cells; fold reduction in activity compared with WT IL-1β values, retold here.

The target of this test is T1, IL-1R1 (mouse IL-1R complex on HEK-Blue-IL1R cells) (mouse) (UniProt P13504).
T1 sequence: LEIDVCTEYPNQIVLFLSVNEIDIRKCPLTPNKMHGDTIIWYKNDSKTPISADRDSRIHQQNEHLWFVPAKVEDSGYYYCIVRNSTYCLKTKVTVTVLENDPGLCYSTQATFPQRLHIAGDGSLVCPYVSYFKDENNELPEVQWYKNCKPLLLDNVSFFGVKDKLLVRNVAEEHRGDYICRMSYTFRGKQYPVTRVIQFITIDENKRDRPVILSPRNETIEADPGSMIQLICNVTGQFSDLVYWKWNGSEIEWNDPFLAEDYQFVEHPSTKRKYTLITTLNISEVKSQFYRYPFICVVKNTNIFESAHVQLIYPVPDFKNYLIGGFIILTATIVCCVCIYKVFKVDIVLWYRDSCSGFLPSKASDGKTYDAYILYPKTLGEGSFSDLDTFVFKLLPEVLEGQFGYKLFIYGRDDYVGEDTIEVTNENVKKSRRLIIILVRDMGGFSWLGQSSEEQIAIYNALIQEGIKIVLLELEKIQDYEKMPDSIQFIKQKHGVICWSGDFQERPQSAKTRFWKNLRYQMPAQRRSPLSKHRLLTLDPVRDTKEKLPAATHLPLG

“human IL-1β mutant Q148G (from UniProt P01584 117-269) (ligand)”: the NF-κB-driven expression of a luciferase reporter in HEK-Blue-IL1R cells; fold reduction in activity compared with WT IL-1β worked out at 168 fold.
